Reference: patent publication US20200115430A1 (I2O THERAPEUTICS, published 2020)
Starred links: 1 amine or outer side, 2 acyl side, 3 side chain; linkers in the order of their positions; H or OH if unused. Positions of bridges follow the written chain, without caps; N, C: chain ends. Groups on a side chain read outwards from the residue. No end group written: not given here. *: point of attachment. C18 diacid = O=C(O)CCCCCCCCCCCCCCCCC(=O)*; γGlu = O=C(O)[C@H](CCC(=O)[*:2])N[*:1]; Palmitoyl = CCCCCCCCCCCCCCCC(=O)*

T1: human amylin 3 receptor (human, UniProt P30988 25-474; O60896 24-148)
T1 sequence (looked up) 1: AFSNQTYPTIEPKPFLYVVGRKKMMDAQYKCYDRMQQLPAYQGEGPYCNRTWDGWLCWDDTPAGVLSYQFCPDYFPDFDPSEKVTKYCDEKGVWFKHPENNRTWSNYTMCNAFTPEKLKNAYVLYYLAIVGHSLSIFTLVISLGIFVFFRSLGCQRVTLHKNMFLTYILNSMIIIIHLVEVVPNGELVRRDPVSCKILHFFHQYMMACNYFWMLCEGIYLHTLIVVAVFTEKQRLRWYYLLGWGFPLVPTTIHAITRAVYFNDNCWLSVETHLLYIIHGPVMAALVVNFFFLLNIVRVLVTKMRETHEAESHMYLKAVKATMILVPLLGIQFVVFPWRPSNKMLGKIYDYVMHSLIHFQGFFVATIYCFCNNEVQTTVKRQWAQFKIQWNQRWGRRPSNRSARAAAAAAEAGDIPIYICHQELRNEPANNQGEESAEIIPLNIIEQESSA
T1 sequence (looked up) 2: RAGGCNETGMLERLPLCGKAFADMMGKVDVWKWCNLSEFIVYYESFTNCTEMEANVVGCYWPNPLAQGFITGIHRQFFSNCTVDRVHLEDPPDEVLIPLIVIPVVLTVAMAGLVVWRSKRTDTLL

T2: human calcitonin receptor (human, UniProt P30988 25-474)
T2 sequence (looked up): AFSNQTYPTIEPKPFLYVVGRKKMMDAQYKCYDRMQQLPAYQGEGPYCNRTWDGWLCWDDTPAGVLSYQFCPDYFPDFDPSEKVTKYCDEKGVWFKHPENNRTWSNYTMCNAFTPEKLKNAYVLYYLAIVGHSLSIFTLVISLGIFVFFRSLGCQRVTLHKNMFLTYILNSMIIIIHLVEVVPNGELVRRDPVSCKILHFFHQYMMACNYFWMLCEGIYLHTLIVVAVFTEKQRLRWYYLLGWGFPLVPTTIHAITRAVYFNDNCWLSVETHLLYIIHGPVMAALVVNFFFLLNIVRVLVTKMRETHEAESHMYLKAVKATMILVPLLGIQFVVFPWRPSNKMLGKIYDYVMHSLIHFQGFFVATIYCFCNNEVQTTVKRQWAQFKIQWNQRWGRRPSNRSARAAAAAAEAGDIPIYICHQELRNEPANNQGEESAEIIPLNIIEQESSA


Key:
human amylin 3 receptor = target: T1, human amylin 3 receptor; assay: cell-based or functional assay
[1] = target: T2, human calcitonin receptor; assay: cell-based or functional assay

Binder	pEC50 (cAMP accumulation), 0% HSA (human amylin 3 receptor)	pEC50 (cAMP accumulation), 0.1% HSA (human amylin 3 receptor)	pEC50 (cAMP accumulation), 4% HSA (human amylin 3 receptor)	pEC50 (cAMP accumulation), 0% HSA [1]	pEC50 (cAMP accumulation), 0.1% HSA [1]	pEC50 (cAMP accumulation), 4% HSA [1]
K([γGlu-C18 diacid])CNTSTCATSRLANFLQKSSNNFGPILPPTKVGSETY-NH2 (disulfide 2-7; N-terminus assumed; SMILES CC[C@H](C)[C@H](NC(=O)[C@@H]1CCCN1C(=O)CNC(=O)[C@H](Cc1ccccc1)NC(=O)[C@H](CC(N)=O)NC(=O)[C@H](CC(N)=O)NC(=O)[C@H](CO)NC(=O)[C@H](CO)NC(=O)[C@H](CCCCN)NC(=O)[C@H](CCC(N)=O)NC(=O)[C@H](CC(C)C)NC(=O)[C@H](Cc1ccccc1)NC(=O)[C@H](CC(N)=O)NC(=O)[C@H](C)NC(=O)[C@H](CC(C)C)NC(=O)[C@H](CCCNC(=N)N)NC(=O)[C@H](CO)NC(=O)[C@@H](NC(=O)[C@H](C)NC(=O)[C@@H]1CSSC[C@H](NC(=O)[C@@H](N)CCCCNC(=O)CC[C@H](NC(=O)CCCCCCCCCCCCCCCCC(=O)O)C(=O)O)C(=O)N[C@@H](CC(N)=O)C(=O)N[C@@H]([C@@H](C)O)C(=O)N[C@@H](CO)C(=O)N[C@@H]([C@@H](C)O)C(=O)N1)[C@@H](C)O)C(=O)N[C@@H](CC(C)C)C(=O)N1CCC[C@H]1C(=O)N1CCC[C@H]1C(=O)N[C@H](C(=O)N[C@@H](CCCCN)C(=O)N[C@H](C(=O)NCC(=O)N[C@@H](CO)C(=O)N[C@@H](CCC(=O)O)C(=O)N[C@H](C(=O)N[C@@H](Cc1ccc(O)cc1)C(N)=O)[C@@H](C)O)C(C)C)[C@@H](C)O) [Compound A109]	12.2 pEC50	11.1 pEC50	9.6 pEC50	11.7 pEC50	10.5 pEC50	9 pEC50
SCNTSTCATQRLK([γGlu-Palmitoyl])NELHKSSNNFGPILPPTKVGSETY-NH2 (disulfide 2-7; N-terminus assumed; SMILES CCCCCCCCCCCCCCCC(=O)N[C@@H](CCC(=O)NCCCC[C@H](NC(=O)[C@H](CC(C)C)NC(=O)[C@H](CCCNC(=N)N)NC(=O)[C@H](CCC(N)=O)NC(=O)[C@@H](NC(=O)[C@H](C)NC(=O)[C@@H]1CSSC[C@H](NC(=O)[C@@H](N)CO)C(=O)N[C@@H](CC(N)=O)C(=O)N[C@@H]([C@@H](C)O)C(=O)N[C@@H](CO)C(=O)N[C@@H]([C@@H](C)O)C(=O)N1)[C@@H](C)O)C(=O)N[C@@H](CC(N)=O)C(=O)N[C@@H](CCC(=O)O)C(=O)N[C@@H](CC(C)C)C(=O)N[C@@H](Cc1c[nH]cn1)C(=O)N[C@@H](CCCCN)C(=O)N[C@@H](CO)C(=O)N[C@@H](CO)C(=O)N[C@@H](CC(N)=O)C(=O)N[C@@H](CC(N)=O)C(=O)N[C@@H](Cc1ccccc1)C(=O)NCC(=O)N1CCC[C@H]1C(=O)N[C@H](C(=O)N[C@@H](CC(C)C)C(=O)N1CCC[C@H]1C(=O)N1CCC[C@H]1C(=O)N[C@H](C(=O)N[C@@H](CCCCN)C(=O)N[C@H](C(=O)NCC(=O)N[C@@H](CO)C(=O)N[C@@H](CCC(=O)O)C(=O)N[C@H](C(=O)N[C@@H](Cc1ccc(O)cc1)C(N)=O)[C@@H](C)O)C(C)C)[C@@H](C)O)[C@@H](C)CC)C(=O)O) [Compound A107]	12.5 pEC50	11.6 pEC50	10.3 pEC50	11.5 pEC50	10.5 pEC50	9 pEC50
